This is an account of results in the Human Domainome abundance scans (Beltran et al. 2025).

± gives the uncertainty stated by the source.

Sequences and labels used below:
B1: CD2-associated protein, residues 271 to 331; numbered along this chain, Q9Y5K6 (parent)
chain: KEYCRTLFAYEGTNEDELTFKEGEIIHLISKETGEAGWWRGELNGKEGVFPDNFAVQINEL

This data set covers variants of B1. Nature of the data set: abundance fitness (aPCA) (normalised: wild type 0, dead -1); higher = more abundant; growth selection in yeast, the domain comes from the species named. The note with it: Homo sapiens.
In the case of A9P, the abundance fitness is -0.084 ± 0.079.
Regarding A9D, the abundance fitness was -0.011 ± 0.097.
Consider H27E, for which the abundance fitness amounted to 0.093 ± 0.082.
Turning to H27W, the abundance fitness was -0.276 ± 0.066.
The result for H27Q reads -0.021 ± 0.091; that for H27C, 0.013 ± 0.078; that for H27Y, -0.126 ± 0.1.
With N53H, the abundance fitness is -0.032 ± 0.065.
On to N53T, for which the abundance fitness worked out at 0.027 ± 0.065.
As to N53I, the abundance fitness is -0.193 ± 0.054.
The same measure for N53C: -0.138 ± 0.044; for N53F: -0.14 ± 0.059; for N53D: -0.094 ± 0.062.
For the variant R5L, the abundance fitness was -0.383 ± 0.081.
As to R5W, the abundance fitness is -0.689 ± 0.21.
The same measure for R5P: -0.978 ± 0.21.
The result for R5I reads -0.527 ± 0.062.
The result for R5K reads 0.182 ± 0.15; that for G12D, -0.794 ± 0.13.
G12M: the abundance fitness was -0.786 ± 0.13.
With G12F, the abundance fitness was -0.687 ± 0.11.
G12T: the abundance fitness was -0.425 ± 0.068.
The result for P51A reads -0.447 ± 0.087; that for P51E, -0.573 ± 0.19; that for P51M, 0.004 ± 0.11.
In the case of P51W, the abundance fitness is -0.533 ± 0.071.
The result for P51L reads -0.377 ± 0.068; that for G41R, -0.909 ± 0.11; that for G41A, -0.703 ± 0.12.
Take G41H: the abundance fitness was -0.746 ± 0.25.
In the case of G41T, the abundance fitness is -0.636 ± 0.1.
The same measure for G41P: -0.605 ± 0.19; for F8H: -0.109 ± 0.081.
As for F8L, the abundance fitness was -0.064 ± 0.039.
The result for F8Q reads 0.074 ± 0.065.
Consider F8D, for which the abundance fitness was -0.311 ± 0.13.
As to F8W, the abundance fitness was -0.139 ± 0.051.
Regarding K1D, the abundance fitness is -0.364 ± 0.088.
The result for K1C reads -0.629 ± 0.14.
As to K1M, the abundance fitness is -0.154 ± 0.081.
Consider L18W, for which the abundance fitness is -0.792 ± 0.14.
For the variant E2G, the abundance fitness is -0.078 ± 0.057.
As to E2W, the abundance fitness was -0.525 ± 0.14.
Turning to E2H, the abundance fitness was found to be 0.049 ± 0.16.
The result for E2S reads -0.128 ± 0.067.
For the variant E2P, the abundance fitness was -0.306 ± 0.13.
The result for E2Q reads -0.05 ± 0.22; that for E47P, -0.752 ± 0.14.
The same measure for E47D: -0.347 ± 0.081; for E47T: -0.029 ± 0.09; for E47V: -0.029 ± 0.055.
Consider E47A, for which the abundance fitness is -0.248 ± 0.067.
The result for E47S reads -0.052 ± 0.048; that for E47C, -0.104 ± 0.068; that for E15R, -0.12 ± 0.048.
The same measure for E15Y: -0.261 ± 0.16.
E15C: the abundance fitness was -0.123 ± 0.11.
The result for E15W reads -0.343 ± 0.069; that for E15N, -0.184 ± 0.16; that for E15T, -0.27 ± 0.09.
Regarding E15S, the abundance fitness is -0.138 ± 0.07.
The same measure for C4W: -0.301 ± 0.068; for C4D: -1.04 ± 0.46.
The same measure for C4V: -0.354 ± 0.066; for K31L: -0.476 ± 0.064.
The result for K31C reads -0.562 ± 0.095.
For K31R, the abundance fitness came to 0.017 ± 0.089.
The result for K31F reads -0.848 ± 0.086; that for E32T, -0.111 ± 0.05; that for E32W, -0.116 ± 0.07.
The same measure for E32S: -0.091 ± 0.039; for E32D: -0.003 ± 0.062.
The same measure for F54M: -0.079 ± 0.08; for F54R: -0.004 ± 0.069.
As for F54T, the abundance fitness was -0.088 ± 0.076.
The same measure for F54K: 0.044 ± 0.081; for F54C: 0.084 ± 0.17; for F54L: 0.037 ± 0.06.
The result for F54G reads -0.32 ± 0.091; that for E17A, -0.233 ± 0.083; that for E17R, -0.483 ± 0.048.
The same measure for E17T: -0.428 ± 0.067; for E17S: -0.259 ± 0.052; for E17I: -0.991 ± 0.19.
As for E17L, the abundance fitness was -0.744 ± 0.065.
The same measure for E17G: -0.58 ± 0.078.
The same measure for L7M: -0.113 ± 0.077; for G45M: -0.695 ± 0.12.
Take G45L: the abundance fitness is -0.858 ± 0.079.
The same measure for G45N: -0.359 ± 0.21.
The same measure for Q57D: -0.097 ± 0.14; for Q57L: -0.046 ± 0.041; for Q57Y: -0.463 ± 0.11.
Take E42V: the abundance fitness was -0.159 ± 0.079.
Turning to E42P, the abundance fitness is -0.981 ± 0.21.
The same measure for E42A: 0.006 ± 0.1; for E42T: -0.185 ± 0.12.
On to E42I, for which the abundance fitness was -0.026 ± 0.1.
With G23P, the abundance fitness is -0.892 ± 0.2.
The same measure for G23M: -0.958 ± 0.23; for G23S: -0.465 ± 0.082; for G23F: -0.863 ± 0.39.
The same measure for W39E: -0.663 ± 0.12; for W39D: -0.941 ± 0.47.
For the variant W39P, the abundance fitness is -0.724 ± 0.2.
Consider W39N, for which the abundance fitness is -0.734 ± 0.14.
The same measure for W39Y: -0.579 ± 0.11.
The result for W39C reads -0.48 ± 0.12; that for A36T, -0.044 ± 0.066.
Regarding A36H, the abundance fitness was -0.199 ± 0.15.
Turning to A36C, the abundance fitness was -0.147 ± 0.11.
Turning to A36F, the abundance fitness was -0.158 ± 0.14.
As to A36E, the abundance fitness was -0.13 ± 0.091.
For the variant E11G, the abundance fitness was -0.384 ± 0.069.
E11Q: the abundance fitness is -0.4 ± 0.2.
For E11M, the abundance fitness is -0.254 ± 0.11.
In the case of E11F, the abundance fitness is -0.151 ± 0.17.
The result for R40H reads -0.296 ± 0.09; that for R40K, 0.014 ± 0.066; that for R40A, -0.426 ± 0.065.
In the case of R40N, the abundance fitness was -0.706 ± 0.17.
The same measure for R40I: -0.547 ± 0.11; for R40L: -0.009 ± 0.05; for Y3P: -0.75 ± 0.089.
Turning to Y3S, the abundance fitness is -0.26 ± 0.067.
On to Y3A, for which the abundance fitness was -0.369 ± 0.071.
As for Y3D, the abundance fitness is -0.555 ± 0.27.
The same measure for Y3T: -0.608 ± 0.12; for Y3K: -0.748 ± 0.3; for Y3W: -0.661 ± 0.086.
In the case of E22L, the abundance fitness was -0.732 ± 0.067.
The same measure for E22D: -0.572 ± 0.15; for E22C: -0.4 ± 0.089.
The same measure for E22F: -1.02 ± 0.25.
